Results as given in PMC5489476, “A thermophilic cell-free cascade enzymatic reaction for acetoin synthesis from pyruvate” (Scientific Reports, 2017).

Legend:
[1] = target: T1, coAHASL2 (Caldicellulosiruptor owensensis, UniProt E4Q4G3); test: colorimetric acetoin assay; activity with […] FAD; type: biochemical; settings: pyruvate, ThDP, Mg2+; 65 °C, Tris pH 6.5
T1 construct: gene Calow_0543; catalytic subunit alone, EC 2.2.1.6
T1 sequence (E4Q4G3 1-552): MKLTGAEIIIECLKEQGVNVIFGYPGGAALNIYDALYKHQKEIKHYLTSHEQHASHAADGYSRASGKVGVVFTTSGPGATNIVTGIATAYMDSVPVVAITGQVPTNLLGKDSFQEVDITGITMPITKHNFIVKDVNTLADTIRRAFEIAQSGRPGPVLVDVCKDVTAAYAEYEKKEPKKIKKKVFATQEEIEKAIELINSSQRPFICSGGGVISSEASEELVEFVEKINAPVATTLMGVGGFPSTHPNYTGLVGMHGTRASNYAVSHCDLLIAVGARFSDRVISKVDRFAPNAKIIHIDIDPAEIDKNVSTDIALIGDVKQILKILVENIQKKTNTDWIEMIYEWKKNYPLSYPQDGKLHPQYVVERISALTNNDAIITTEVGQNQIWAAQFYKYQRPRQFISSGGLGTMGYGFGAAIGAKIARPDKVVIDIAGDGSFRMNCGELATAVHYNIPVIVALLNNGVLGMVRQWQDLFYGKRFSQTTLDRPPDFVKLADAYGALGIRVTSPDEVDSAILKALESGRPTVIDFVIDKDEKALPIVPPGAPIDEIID

[2] = target: T2, coAHASL1 (Caldicellulosiruptor owensensis, UniProt E4Q3I4); test: colorimetric acetoin assay; activity with […] FAD; type: biochemical; settings: pyruvate, ThDP, Mg2+; 65 °C, Tris pH 6.5
T2 construct: gene Calow_0356; catalytic subunit alone, EC 2.2.1.6
T2 sequence (E4Q3I4 1-536): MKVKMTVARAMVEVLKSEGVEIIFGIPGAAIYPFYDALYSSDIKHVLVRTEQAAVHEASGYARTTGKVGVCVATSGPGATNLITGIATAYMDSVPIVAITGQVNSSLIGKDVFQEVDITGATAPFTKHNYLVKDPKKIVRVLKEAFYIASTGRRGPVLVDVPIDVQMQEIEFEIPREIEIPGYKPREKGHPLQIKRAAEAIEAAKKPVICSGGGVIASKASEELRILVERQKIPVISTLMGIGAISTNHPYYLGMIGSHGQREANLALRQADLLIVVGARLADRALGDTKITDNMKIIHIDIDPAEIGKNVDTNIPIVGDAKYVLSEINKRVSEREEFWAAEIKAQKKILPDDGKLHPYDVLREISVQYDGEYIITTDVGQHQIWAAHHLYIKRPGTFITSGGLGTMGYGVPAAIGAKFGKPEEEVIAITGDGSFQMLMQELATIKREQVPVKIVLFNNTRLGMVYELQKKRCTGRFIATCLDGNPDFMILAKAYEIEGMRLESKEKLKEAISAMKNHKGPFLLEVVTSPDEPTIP

[3] = substrate: CC(=O)C(=O)O; test: purified protein; type: biochemical, Caldicellulosiruptor owensensis; settings: ThDP, FAD, Mg2+, catalytic subunit alone
[4] = 70 °C, pH 6.5 (citrate-phosphate)

`Cc1cc2nc3c(=O)[nH]c(=O)nc-3n(C[C@H](O)[C@H](O)[C@H](O)COP(=O)(O)OP(=O)(O)OC[C@H]3O[C@@H](n4cnc5c(N)ncnc54)[C@H](O)[C@@H]3O)c2cc1C` [FAD] was tested, and the activity enhancement [1] was “concentration-dependent enhancements of both coAHASL1 and coAHASL2 were observed upon the addition of FAD” and the activity enhancement [2] was “concentration-dependent enhancements of both coAHASL1 and coAHASL2 were observed upon the addition of FAD”.

B1: coAHASL1 (Caldicellulosiruptor owensensis OL) (protein)
chain: T2 sequence (E4Q3I4 1-536)
notes: catalytic subunit alone, EC 2.2.1.6
B1 gave a Km ([3]; 65 °C, pH 6.5 (Tris)) of 71.83 ± 4.63 mM and a Vmax ([3]; 65 °C, pH 6.5 (Tris)) of 3.7 µmol/min/mg.

B2: coAHASL2 (Caldicellulosiruptor owensensis OL) (protein)
chain: T1 sequence (E4Q4G3 1-552)
notes: as for B1
For B2, the Km [3, 4] was 53.78 ± 2.68 mM and the Vmax [3, 4] was 0.7 µmol/min/mg.
